# Test results: article PMC6401464 (Journal of Virology, 2019)
# B1: Nano-62 (VHH)
# VHH: QVQLQESGGGLVMTGGSLRLSCAVSGRTIDVSVMAWFRQAPGKEREFVSGMRWSGMTTYSADSVKDRFTISRDKTKNTVYLQMNSLKPEDTAVYYCAARSRFIVGVPQARDLYDYWGQGTQVTVSS
# notes: also called Nanobody 62
# B2: Nano-7 (VHH)
# VHH: QVQLQESGGGLVQAGGSLRLSCAVSGRTFSNYYSGWFRQAPGKEREFLASIRWSDSTTNYADSVKGRFTISRDTAKNTVYLQMNSLKLEDTAVYHCAARRLATYDYWGQGTQVTVSS
# notes: also called Nanobody 7
# B3: Nano-94 (VHH)
# VHH: QVQLQESGGGLVQAGGSLRLSCAASGRMFSINSMGWYRQAPGKERELVATISEAGTTTYADSVRGRFTIARDNAKNTVYLQMNSLNPEDTAVYYCNAYIQLDSTIWFRAYWGQGTQVTVSS
# notes: also called Nanobody 94
# B4: GI.1 P domain (Norwalk virus) (domain or fragment)
# chain: EQKTRPFTLPNLPLSSLSNSRAPLPISSMGISPDNVQSVQFQNGRCTLDGRLVGTTPVSLSHVAKIRGTSNGTVINLTELDGTPFHPFEGPAPIGFPDLGGCDWHINMTQFGHSSQTQYDVDTTPDTFVPHLGSIQANGIGSGNYVGVLSWISPPSHPSGSQVDLWKIPNYGSSITEATHLAPSVYPPGFGEVLVFFMSKMPGPGAYNLPCLLPQEYISHLASEQAPTVGEAALLHYVDPDTGRNLGEFKAYPDGFLTCVPNGASSGPQQLPINGVFVFVSWVSRFYQLKPVGT
# notes: also called GI.1 capsid-protruding (P) domain; GI P domain
# What was measured:
# [1] = target: T1, GI.1 P domain (Norwalk virus) (Norwalk virus (human norovirus GI.1), UniProt Q83884); experiment: ITC; Nano-62 (150 μM) injected in 2 μl aliquots into GI.1 P domain (15 μM), PBS, 30°C, one-site binding model; details: both partners purified
# T1 construct: also called GI.1 capsid-protruding (P) domain; GI P domain
# [2] = target: T1, GI.1 P domain (Norwalk virus); experiment: ELISA; direct ELISA; P domain or VLPs coated on MaxiSorp plates, serially diluted Nanobodies (1:1 in PBS, starting at 100 μg/ml) for 1 h at 37°C, detected with HRP-conjugated anti-polyhistidine antibody; cutoff OD490 0.15; details: both partners purified
# [3] = target: T1, GI.1 P domain (Norwalk virus); experiment: ITC; Nano-7 (150 μM) injected in 0.5 μl aliquots into GI.1 P domain (15 μM), PBS, 35°C, one-site binding model; details: both partners purified
# [4] = target: T1, GI.1 P domain (Norwalk virus); experiment: ITC; Nano-94 (150 μM) injected in 2 μl aliquots into GI.1 P domain (15 μM), PBS, 25°C, one-site binding model; details: both partners purified
# crystal structure = target: the molecule itself; experiment: crystal structure
binder,measurement,setting,value
B1,Kd,[1],4.58 nM
same,stoichiometry N,[1],~1
same,"detection level (ELISA, cutoff OD490 0.15)",[2],0.1 µg/mL
B2,"detection level (ELISA, cutoff OD490 0.15)",[2],0.2 µg/mL
same,Kd,[3],0.163 nM
same,stoichiometry N,[3],~1
B3,"detection level (ELISA, cutoff OD490 0.15)",[2],0.1 µg/mL
same,Kd,[4],43.4 nM
same,stoichiometry N,[4],~1
B4,binding result,crystal structure,binds
